Data taken from the supplement of paper PMC11316812.
± gives the standard deviation of the averaged measurements.

Assays:
MCF7 = assay: percentage of EdU-negative (G0-arrested) nuclei per well, 72 h; higher = more G0 arrest; conditions: reference: sequence is the full UniProt precursor, the tested protein was the secreted form or ectodomain
hTERT-HMEC = assay: as above; conditions: reference: sequence is the full UniProt precursor, the tested protein was the secreted form or ectodomain
[1] = protein concentration 0.01025 µM
[2] = protein concentration 0.1025 µM
[3] = protein concentration 0.0225 µM
[4] = protein concentration 0.0357143 µM
[5] = protein concentration 0.357143 µM
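Note: secreted proteins added to cultured cells, EdU pulse at the end, nuclei found by Hoechst imaging, EdU status from nuclear versus surrounding ring intensity ratio, PBS as neutral control.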

MMLRLLSSLLLVAVASGYGPPSSHSSSRVVHGEDAVPYSWPWQVSLQYEKSGSFYHTCGGSLIAPDWVVTAGHCISRDLTYQVVLGEYNLAVKEGPEQVIPINSEELFVHPLWNRSCVACGNDIALIKLSRSAQLGDAVQLASLPPAGDILPNKTPCYITGWGRLYTNGPLPDKLQQARLPVVDYKHCSRWNWWGSTVKKTMVCAGGYIRSGCNGDSGGPLNCPTEDGGWQVHGVTSFVSAFGCNFIWKPTVFTRVSAFIDWIEETIASH
percentage of EdU-negative (MCF7; [1]): 25.2 ± 3% | percentage of EdU-negative (MCF7; [2]): 24.7 ± 1.6% | percentage of EdU-negative (hTERT-HMEC; [1]): 5.71 ± 1.5% | percentage of EdU-negative (hTERT-HMEC; [2]): 5.66 ± 0.78%

MMLRLLSSLLLVAVASGYGPPSSRPSSRVVNGEDAVPYSWPWQVSLQYEKSGSFYHTCGGSLIAPDWVVTAGHCISSSRTYQVVLGEYDRAVKEGPEQVIPINSGDLFVHPLWNRSCVACGNDIALIKLSRSAQLGDAVQLASLPPAGDILPNETPCYITGWGRLYTNGPLPDKLQEALLPVVDYEHCSRWNWWGSSVKKTMVCAGGDIRSGCNGDSGGPLNCPTEDGGWQVHGVTSFVSAFGCNTRRKPTVFTRVSAFIDWIEETIASH
percentage of EdU-negative (MCF7; protein concentration 0.022 µM): 25.2 ± 2.1% | percentage of EdU-negative (MCF7; protein concentration 0.22 µM): 29.66 ± 0.19% | percentage of EdU-negative (hTERT-HMEC; protein concentration 0.022 µM): 5.18 ± 0.89% | percentage of EdU-negative (hTERT-HMEC; protein concentration 0.22 µM): 8.27 ± 2%

MMLRVLVGAVLPAMLLAAPPPINKLALFPDKSAWCEAKNITQIVGHSGCEAKSIQNRACLGQCFSYSVPNTFPQSTESLVHCDSCMPAQSMWEIVTLECPGHEEVPRVDKLVEKILHCSCQACGKEPSHEGLSVYVQGEDGPGSQPGTHPHPHPHPHPGGQTPEPEDPPGAPHTEEEGAED
percentage of EdU-negative (MCF7; [3]): 25.6 ± 1.4% | percentage of EdU-negative (MCF7; protein concentration 0.225 µM): 24.7 ± 0.79% | percentage of EdU-negative (hTERT-HMEC; [3]): 5.79 ± 0.84% | percentage of EdU-negative (hTERT-HMEC; protein concentration 0.225 µM): 5.88 ± 0.42%

MMPKHCFLGFLISFFLTGVAGTQSTHESLKPQRVQFQSRNFHNILQWQPGRALTGNSSVYFVQYKIMFSCSMKSSHQKPSGCWQHISCNFPGCRTLAKYGQRQWKNKEDCWGTQELSCDLTSETSDIQEPYYGRVRAASAGSYSEWSMTPRFTPWWETKIDPPVMNITQVNGSLLVILHAPNLPYRYQKEKNVSIEDYYELLYRVFIINNSLEKEQKVYEGAHRAVEIEALTPHSSYCVVAEIYQPMLDRRSQRSEERCVEIP [Q969J5]
percentage of EdU-negative (MCF7; [3]): 24.1 ± 0.85% | percentage of EdU-negative (MCF7; protein concentration 0.225 µM): 27.2 ± 3% | percentage of EdU-negative (hTERT-HMEC; [3]): 4.89 ± 0.64% | percentage of EdU-negative (hTERT-HMEC; protein concentration 0.225 µM): 5.48 ± 0.17%

MMQKLLKCSRLVLALALILVLESSVQGYPTRRARYQWVRCNPDSNSANCLEEKGPMFELLPGESNKIPRLRTDLFPKTRIQDLNRIFPLSEDYSGSGFGSGSGSGSGSGSGFLTEMEQDYQLVDESDAFHDNLRSLDRNLPSDSQDLGQHGLEEDFML
percentage of EdU-negative (MCF7; [3]): 24.3 ± 3.3% | percentage of EdU-negative (MCF7; protein concentration 0.225 µM): 26 ± 1.7% | percentage of EdU-negative (hTERT-HMEC; [3]): 5.29 ± 0.12% | percentage of EdU-negative (hTERT-HMEC; protein concentration 0.225 µM): 5.72 ± 0.97%

MMRCCRRRCCCRQPPHALRPLLLLPLVLLPPLAAAAAGPNRCDTIYQGFAECLIRLGDSMGRGGELETICRSWNDFHACASQVLSGCPEEAAAVWESLQQEARQAPRPNNLHTLCGAPVHVRERGTGSETNQETLRATAPALPMAPAPPLLAAALALAYLLRPLA [Q496H8]
percentage of EdU-negative (MCF7; [3]): 24.2 ± 1.7% | percentage of EdU-negative (MCF7; protein concentration 0.225 µM): 23.3 ± 0.52% | percentage of EdU-negative (hTERT-HMEC; [3]): 4.98 ± 0.36% | percentage of EdU-negative (hTERT-HMEC; protein concentration 0.225 µM): 5.04 ± 1.6%

MMRTCVLLSAVLWCLTGVQCPRFTLFNKKGFIYGKTGQPDKIYVELHQNSPVLICMDFKLSKKEIVDPTYLWIGPNEKTLTGNNRINITETGQLMVKDFLEPLSGLYTCTLSYKTVKAETQEEKTVKKRYDFMVFAYREPDYSYQMAVRFTTRSCIGRYNDVFFRVLKKILDSLISDLSCHVIEPSYKCHSVEIPEHGLIHELFIAFQVNPFAPGWKGACNGSVDCEDTTNHNILQARDRIEDFFRSQAYIFYHNFNKTLPAMHFVDHSLQVVRLDSCRPGFGKNERLHSNCASCCVVCSPATFSPDVNVTCQTCVSVLTYGAKSCPQTSNKNQQYED [Q6X784]
percentage of EdU-negative (MCF7; [4]): 24.6 ± 1.8% | percentage of EdU-negative (MCF7; [5]): 28.8 ± 3.5% | percentage of EdU-negative (hTERT-HMEC; [4]): 4.95 ± 0.69% | percentage of EdU-negative (hTERT-HMEC; [5]): 6.88 ± 0.23%

MMSFLLGAILTLLWAPTAQAEVLLQPDFNAEKFSGLWYVVSMASDCRVFLGKKDHLSMSTRAIRPTEEGGLHVHMEFPGADGCNQVDAEYLKVGSEGHFRVPALGYLDVRIVDTDYSSFAVLYIYKELEGALSTMVQLYSRTQDVSPQALKSFQDFYPTLGLPKDMMVMLPQSDACNPESKEAP [Q6UWW0]
percentage of EdU-negative (MCF7; [3]): 26.2 ± 2.2% | percentage of EdU-negative (MCF7; protein concentration 0.225 µM): 25.9 ± 0.71% | percentage of EdU-negative (hTERT-HMEC; [3]): 5.79 ± 0.094% | percentage of EdU-negative (hTERT-HMEC; protein concentration 0.225 µM): 6.89 ± 0.15%
